The record followed here is patent US20230192765A1, “PEPTIDES TARGETING SHP2 AND USES THEREOF” (UNIVERSITÀ DEGLI STUDI DI ROMA "TOR VERGATA", priority 2020, published 2023).

*1 amine or outer side, *2 acyl side, *3 side chain or, on linkers, in order; H or OH if unused. Where a SMILES comes first, the peptide text is derived from it. [ ]: non-standard residue; d: D form. 5,6‑carboxyfluorescein = CF, 5,6-carboxyfluorescein label; CF = 5,6-carboxyfluorescein, N-terminal label; pY = N[C@@H](Cc1ccc(OP(=O)(O)O)cc1)C(=O)O; Cysteamide = C(CS[*:3])N[*:1]

For one data set, the system named is NIH3T3 cells. Description: Peptide toxicity in the cell uptake experiments (Sytox). Type of data set: cell-based. Conditions: Pep1 at 10 µM. Here is the method: Cell viability in the FACS experiment was determined by using Sytox fluorescence.
Cells were incubated for different times and then washed, collected and stained with SYTOX blue (1 mM, Invitrogen™) to identify the viable population and the green fluorescence of CFP9W5 was recordered to measure peptide uptake. Data were analysed with Kaluza Analysis Software (Beckman Coulter).

In data set [1] the target is C-SH2 domain of SHP2 (residues 109-217), recombinant (human) (UniProt Q06124). The data set is described as follows: fluorescence anisotropy direct binding. (Polarisation of emitted light reports the rotation of a fluorescent probe.)
Data set [2] shares this target. Description: fluorescence anisotropy direct binding, labelled peptide titrated with protein.
For data set [3], the target named is N-SH2 domain of SHP2 (residues 2-111), recombinant (human) (UniProt Q06124). The description is as above.
The target in data set [4] is T1, N-SH2 domain of SHP2 (Homo sapiens, UniProt Q06124).
T1 construct: constructs of the N-SH2 (residues 2-111), C-SH2 (109-217) and PTP (212-528) domains; His6 (esaHis); made in house; host or cells: E. coli (DE3) Rosetta2
T1 sequence (Q06124 2-111): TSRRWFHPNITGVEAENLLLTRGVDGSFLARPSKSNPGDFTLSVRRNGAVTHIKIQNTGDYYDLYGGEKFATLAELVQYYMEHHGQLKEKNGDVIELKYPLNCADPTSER
Description: Fluorescence anisotropy displacement assay. Conditions: for effect of sequence length on the binding affinity: [CF-P9]=1.0 nM, [N-SH2]= 40 nM, relative to P9. Type of data set: binding.

Data set [5] deals with T1, N-SH2 domain of SHP2. The data set is described as follows: Fluorescence anisotropy direct binding assay, N-SH2 domain. Conditions: for standard free energy of binding: assuming a 1 M standard state.
Description: Anisotropy measurements were carried out using a Horiba Fluoromax 4 spectrofluorimeter.
For the binding assays, the requested peptide amount (1 nM or 0.1 nM) was diluted in buffer (HEPES 10 mM, NaCl 150 mM, EDTA 1 mM, TCEP 1 mM, fluorescence buffer henceforth) and its anisotropy signal was recorded. The peptide was then titrated with increasing protein amounts, until the anisotropy signal reached a plateau at its maximum value, or up to a protein concentration where protein aggregation and consequent light scattering affected the anisotropy values (usually above 1 µM). The measurements of CF-labeled peptides were carried out using an excitation wavelength of 470 nm and collecting the anisotropy values at an emission wavelength of 520 nm. A 495 nm emission filter was used. For the Cy3-labeled peptides, excitation and emission wavelengths of 520 and 560 nm were used.
The Kd values were obtained fitting the data with the following equation, described in Van der Weert 2011, which avoids the need for the commonly used (but often unjustified) approximation of the concentration of unbound protein with the total concentration:
Here, [P]T and [L]T are the total protein and ligand concentrations, while r, ro and rmax are the anisotropy values at a given protein concentration, in the absence of protein and when the peptide is completely bound, respectively.
For data set [6], the system named is T2, p190A/RhoGAP Y1105 phosphopeptide (EEENIpYSVPHD).
T2 sequence: EEENIYSVPHD

The subject of another data set is T3, P8W5 (LN-pY-IDLDW).
T3 sequence: LNYIDLDW

The test system of data set [7] is T4, BTAM peptide (PTPNS1 bisphosphotyrosyl-containing motif, with 4 N-terminal G residues).
T4 sequence: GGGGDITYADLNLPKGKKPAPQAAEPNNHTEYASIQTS

Data set [8] concerns T5, GAB1 Y657 phosphopeptide (DKQVEpYLDLDL).
T5 sequence: DKQVEYLDLDL

A further data set deals with T6, P8 (LN-pY-IDLDL).
T6 sequence: LNYIDLDL

Data set [9] relates to T7, EGFR Y1016 phosphopeptide (VDADEpYLIPQQ).
T7 sequence: VDADEYLIPQQ

For data set [10], the target named is T8, SHP2 PTP domain (SHP2 construct lacking the N-SH2 domain) (Homo sapiens, UniProt Q06124).
T8 construct: the isolated PTP domain preceded by the C-SH2 domain (residues 105-528); His6 (esaHis); made in house; host or cells: E. coli (DE3) Rosetta2
T8 sequence (Q06124 105-528): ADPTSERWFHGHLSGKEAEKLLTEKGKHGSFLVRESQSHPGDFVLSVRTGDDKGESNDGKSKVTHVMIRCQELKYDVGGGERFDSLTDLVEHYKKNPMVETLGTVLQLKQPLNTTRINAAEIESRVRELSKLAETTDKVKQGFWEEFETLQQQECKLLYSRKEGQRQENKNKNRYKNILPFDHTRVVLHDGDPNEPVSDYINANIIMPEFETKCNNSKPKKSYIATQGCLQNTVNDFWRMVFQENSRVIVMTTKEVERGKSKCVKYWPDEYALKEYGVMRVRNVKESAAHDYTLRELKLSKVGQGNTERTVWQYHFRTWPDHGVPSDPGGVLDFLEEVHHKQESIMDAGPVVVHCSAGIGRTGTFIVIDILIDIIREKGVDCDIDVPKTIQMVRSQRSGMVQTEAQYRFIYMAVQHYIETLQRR
The data set is described as follows: Malachite green phosphatase assay, dephosphorylation of phosphopeptides. The data set is classed as biochemical. Conditions: phosphopeptide 100 µM; enzyme 95 nM. Here is the method:
A SHP2 construct lacking the N-SH2 domain (i.e. the first 104 residues) was used at a 95 nM concentration. Phosphopeptides were added at a 100 µM concentration and the phosphate released was measured at different times. From the linear region of the phosphate versus time curve, the variation in absorbance at 655 nm in 1 min, due to phosphate released, was calculated and plotted.
The ability of SHP2 to dephosphorylate the phosphopeptides was evaluated through a malachite green phosphatase assay (PTP assay kit 1 Millipore, MA, USA). The BTAM peptide and the following monophosphorylated peptides derived from known SHP2 substrates were used for comparison: DKQVEpYLDLDL (SEQ ID NO:6) (GAB1Y657), EEENIpYSVPHD (SEQ ID NO:7) (p190A/RhoGAPY1105), and VDADEpYLIPQQ (SEQ ID NO:8) (EGFRY1016) (Primm) [Sun et al., 2009; Ren et al., 2011]. SHP2Δ104 or PTP (2.38 pmol) were incubated with 100 µM of each phosphopeptide (total volume 25 µl) for different times. The reaction was stopped by adding 100 µl of malachite green solution. After 15 min, absorbance was read at 655 nm using a microplate reader, and compared with a phosphate standard curve to determine the release of phosphate. Data obtained in the linear region of the curve were normalized on the reaction time (1 min).

In data set [11] the target is T9, N-SH2 domain of SHP1, GST fusion on the SH2 domain microarray (human, UniProt P29350 1-106).
T9 construct: domain: N-SH2 domain; Array of 97 human SH2 domains; not shown: GST fusion partner
T9 sequence (looked up): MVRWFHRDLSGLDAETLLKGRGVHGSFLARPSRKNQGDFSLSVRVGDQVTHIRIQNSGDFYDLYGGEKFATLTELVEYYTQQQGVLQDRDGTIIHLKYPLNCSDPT
The data set is described as follows: SH2 domain microarray (GST fusions on nitrocellulose slides), Cy3 fluorescence.

Data set [12] addresses T10, N-SH2 domain of SHP2 (residues 2-111), recombinant (human, UniProt Q06124 2-111).
T10 construct: range 2-111; Expressed in E. coli from pET-26b and purified on Ni-NTA
T10 sequence (looked up): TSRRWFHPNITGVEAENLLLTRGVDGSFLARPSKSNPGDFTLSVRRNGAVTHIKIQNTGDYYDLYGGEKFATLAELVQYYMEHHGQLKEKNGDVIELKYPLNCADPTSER
Description: fluorescence anisotropy direct binding, labelled peptide titrated with protein.

The target of data set [13] is T10, N-SH2 domain of SHP2 (residues 2-111), …. The data set is described as follows: fluorescence anisotropy direct binding.
Description: For the binding assays, the requested peptide amount (1 nM or 0.1 nM) was diluted in buffer (HEPES 10 mM, NaCl 150 mM, EDTA 1 mM, TCEP 1 mM, fluorescence buffer henceforth) and its anisotropy signal was recorded. The peptide was then titrated with increasing protein amounts, until the anisotropy signal reached a plateau at its maximum value, or up to a protein concentration where protein aggregation and consequent light scattering affected the anisotropy values (usually above 1 µM). The measurements of CF-labeled peptides were carried out using an excitation wavelength of 470 nm and collecting the anisotropy values at an emission wavelength of 520 nm. […] For the Cy3-labeled peptides, excitation and emission wavelengths of 520 and 560 nm were used.

Consider `CC(=O)N[C@@H](CCCCN)C(=O)N[C@@H](CCC(=O)O)C(=O)N[C@H](C(=O)N[C@@H](Cc1c[nH]c2ccccc12)C(=O)N[C@@H](Cc1c[nH]c2ccccc12)C(=O)N[C@@H](CCC(=O)O)C(=O)N[C@H](C(=O)N[C@@H](Cc1c[nH]c2ccccc12)C(=O)N[C@@H](Cc1c[nH]c2ccccc12)C(=O)N[C@H](C(=O)N[C@@H](CCC(=O)O)C(=O)N[C@@H](Cc1c[nH]c2ccccc12)C(=O)N[C@@H](CO)C(=O)N[C@@H](CCC(N)=O)C(=O)N1CCC[C@H]1C(=O)N[C@@H](CCCCN)C(=O)N[C@@H](CCCCN)C(=O)N[C@@H](CCCCN)C(=O)N[C@@H](CCCNC(=N)N)C(=O)N[C@@H](CCCCN)C(=O)N[C@H](C(=O)NCCS)C(C)C)[C@@H](C)O)[C@@H](C)O)[C@@H](C)O` [Pep1, reference compound] (Ac-KETWWETWWTEWSQPKKKRKV-Cysteamide), for which the toxicity result with NIH3T3 cells is recorded as “negligible”.
As a reminder, the Kd is the equilibrium constant for the complex coming apart. For CF-P9W5 (CF-GLN-pY-IDLDW) (peptide), in data set [1], the fold lower affinity than for the N-SH2 domain was found to be 1000 fold. Also, the Kd in data set [2] came to 4200 nM; in [3], 4.6 nM.
Usually IC50 stands for the point on the concentration scale where inhibition reaches its midpoint. A higher IC50 goes with weaker potency. The Ki is the dissociation constant of the complex between target and ligand, obtained from inhibition or displacement. A lower Ki goes with higher affinity. At N-SH2 domain of SHP2 [4], `CC[C@H](C)[C@H](NC(=O)[C@H](Cc1ccc(OP(=O)(O)O)cc1)NC(=O)[C@H](CC(N)=O)NC(=O)[C@H](CC(C)C)NC(C)=O)C(=O)N[C@@H](CC(=O)O)C(=O)N[C@@H](CC(C)C)C(=O)N[C@@H](CCC(=O)O)C(=O)N[C@@H](Cc1c[nH]c2ccccc12)C(N)=O` [Peptide P8E4W5, LN-pY-IDLEW] (Ac-LN[pY]IDLEW-NH2) returned a 50% inhibitory concentration (IC50) of 11 ± 1 nM and a Ki of 5 ± 2 nM.
For `CC[C@H](C)[C@H](NC(=O)[C@H](Cc1ccc(OP(=O)(O)O)cc1)NC(=O)[C@H](CC(N)=O)NC(=O)[C@H](CC(C)C)NC(C)=O)C(=O)N[C@@H](CC(=O)O)C(=O)N[C@@H](CC(C)C)C(=O)N[C@@H](CC(=O)O)C(=O)N[C@@H](Cc1ccccc1)C(N)=O` [Peptide P8F5, LN-pY-IDLDF] (Ac-LN[pY]IDLDF-NH2), in that order: 16 ± 1 nM and 9 ± 2 nM.
As to CF-P9E4W5 (CF-GLN-pY-IDLEW) (peptide), in data set [3], the Kd is 8.2 nM.
As to “CF-GLN- Y-IDLDL ({5,6‑carboxyfluorescein}-GLNYIDLDL-NH2) [CF-P9Y0]”, the “standard free energy of binding” value with N-SH2 domain of SHP2 [5] is -7.07 ± 0.048 kcal/mol. Besides, the “affinity lower than phosphorylated peptide” value with N-SH2 domain of SHP2 [5] (unphosphorylated vs phosphorylated labeled peptide) was “approximately 100 times”.
For “CF-GLN-pY-IDLDL ({5,6‑carboxyfluorescein}-GLN[pY]IDLDL-NH2) [CF-P9]”, the “standard free energy of binding” value in the data set with N-SH2 domain of SHP2 [5] is -9.94 ± 0.024 kcal/mol.
Consider “SHP2Δ104 (SHP2 construct lacking the N-SH2 domain, residues 105-528)”, for which the “dephosphorylation of the phosphopeptide (malachite green phosphate release)” value in [6] is “dephosphorylation was indeed observed, although to a lower extent than for other phosphopeptides”; in the data set on P8W5 (LN-pY-IDLDW), “dephosphorylation was indeed observed, although to a lower extent than for other phosphopeptides”; in [7], “dephosphorylation was indeed observed, although to a lower extent than for other phosphopeptides”; in data set [8] it was “dephosphorylation was indeed observed, although to a lower extent than for other phosphopeptides”; with P8 (LN-pY-IDLDL), “dephosphorylation was indeed observed, although to a lower extent than for other phosphopeptides”; in [9], “dephosphorylation was indeed observed, although to a lower extent than for other phosphopeptides”.
Consider `CC[C@H](C)[C@H](NC(=O)[C@H](Cc1ccc(OP(=O)(O)O)cc1)NC(=O)[C@H](CC(N)=O)NC(=O)[C@H](CC(C)C)NC(C)=O)C(=O)N[C@@H](CC(=O)O)C(=O)N[C@@H](CC(C)C)C(=O)N[C@@H](CC(=O)O)C(=O)N[C@@H](CC(C)C)C(N)=O` [Peptide P8, LN-pY-IDLDL] (Ac-LN[pY]IDLDL-NH2), for which, at N-SH2 domain of SHP2 [4], the half-maximal inhibitory concentration (IC50) was 47 ± 4 nM, the inhibition constant (Ki) is 25 ± 4 nM and the “effect of sequence length on the binding affinity” value is “No significant loss in affinity”. For the same molecule, the “dephosphorylation by SHP2” value in data set [10] is recorded as “dephosphorylation was indeed observed, although to a lower extent than for other phosphopeptides”.
Consider `CC[C@H](C)[C@H](NC(=O)[C@H](Cc1ccc(OP(=O)(O)O)cc1)NC(=O)[C@H](CC(N)=O)NC(=O)[C@H](CC(C)C)NC(C)=O)C(=O)N[C@@H](CC(=O)O)C(=O)N[C@@H](CC(C)C)C(=O)N[C@@H](CC(=O)O)C(=O)N[C@@H](Cc1c[nH]c2ccccc12)C(N)=O` [Peptide P8W5, LN-pY-IDLDW], for which the “dephosphorylation by SHP2” value in data set [10] is on record as “dephosphorylation was indeed observed, although to a lower extent than for other phosphopeptides”.
Take “N-pY-IDLDL (Ac-N[pY]IDLDL-NH2; SMILES CC[C@H](C)[C@H](NC(=O)[C@H](Cc1ccc(OP(=O)(O)O)cc1)NC(=O)[C@H](CC(N)=O)NC(C)=O)C(=O)N[C@@H](CC(=O)O)C(=O)N[C@@H](CC(C)C)C(=O)N[C@@H](CC(=O)O)C(=O)N[C@@H](CC(C)C)C(N)=O) [Peptide P7]”: the “effect of sequence length on the binding affinity” value with N-SH2 domain of SHP2 [4] was “drastic perturbation of complex stability”.

B1: Cy3-P9W5 (Cy3-GLN-pY-IDLDW) (peptide)
peptide: XGLNYIDLDW
modifications: phosphotyrosine (pY) at position 4; N-terminal Cyanine 3 carboxylic acid (Cy3); C-terminal amide
For the molecule B1, in data set [3], the dissociation constant Kd is 23 nM. Also, the binding result in [11] is “no binding (tested: peptide at 0.5, 5.0 and 50 nM)”.
As for {CF}-GLNYIDLDL-NH2 [CF-P9Y0 (CF-GLN-Y-IDLDL), unphosphorylated analog of the labeled IRS-1 pY1172 peptide], in data set [12], the dissociation constant Kd was 6600 nM. Besides, in data set [13], the “fold lower affinity than the phosphorylated peptide CF-P9” value is roughly 100 fold.
{CF}-GLN[pY]IDLDL-NH2 [CF-P9 (CF-GLN-pY-IDLDL), fluorescently labeled IRS-1 pY1172 peptide analog]: the dissociation constant Kd in [12] was found to be 53 nM.
